The results in this text go back to paper PMC4706170.

Assay [1] deals with BG505 SOSIP.664 201C-433C (HIV-1 strain BG505). The assay can be described thus: AUC.
In assay [2] the target is BG505 SOSIP.664 trimer (HIV-1 strain BG505). The assay can be described thus: AUC.

As to “2-domain soluble CD4 (domain or fragment)”, the stoichiometry N (CD4 per trimer) in assay [1] amounted to 1.
4-domain CD4 (domain or fragment): the figures for the stoichiometry N (CD4 per trimer) in assay [1] and in assay [2] were 1 and 2, respectively.
In turn, “4-domain soluble CD4 (CD4 D1D4) (domain or fragment)” registered a stoichiometry N (CD4 per trimer) in assay [2] of 3.
Regarding “2-domain soluble CD4 (CD4 D1D2) (domain or fragment)”, the stoichiometry N (CD4 per trimer) in assay [2] is 3.
